This is an account of results in paper PMC5034320, “Modulation of yeast telomerase activity by Cdc13 and Est1 in vitro”.

Series [1] deals with T1, Cdc13 (Saccharomyces cerevisiae, UniProt P32797 1-924).
T1 sequence: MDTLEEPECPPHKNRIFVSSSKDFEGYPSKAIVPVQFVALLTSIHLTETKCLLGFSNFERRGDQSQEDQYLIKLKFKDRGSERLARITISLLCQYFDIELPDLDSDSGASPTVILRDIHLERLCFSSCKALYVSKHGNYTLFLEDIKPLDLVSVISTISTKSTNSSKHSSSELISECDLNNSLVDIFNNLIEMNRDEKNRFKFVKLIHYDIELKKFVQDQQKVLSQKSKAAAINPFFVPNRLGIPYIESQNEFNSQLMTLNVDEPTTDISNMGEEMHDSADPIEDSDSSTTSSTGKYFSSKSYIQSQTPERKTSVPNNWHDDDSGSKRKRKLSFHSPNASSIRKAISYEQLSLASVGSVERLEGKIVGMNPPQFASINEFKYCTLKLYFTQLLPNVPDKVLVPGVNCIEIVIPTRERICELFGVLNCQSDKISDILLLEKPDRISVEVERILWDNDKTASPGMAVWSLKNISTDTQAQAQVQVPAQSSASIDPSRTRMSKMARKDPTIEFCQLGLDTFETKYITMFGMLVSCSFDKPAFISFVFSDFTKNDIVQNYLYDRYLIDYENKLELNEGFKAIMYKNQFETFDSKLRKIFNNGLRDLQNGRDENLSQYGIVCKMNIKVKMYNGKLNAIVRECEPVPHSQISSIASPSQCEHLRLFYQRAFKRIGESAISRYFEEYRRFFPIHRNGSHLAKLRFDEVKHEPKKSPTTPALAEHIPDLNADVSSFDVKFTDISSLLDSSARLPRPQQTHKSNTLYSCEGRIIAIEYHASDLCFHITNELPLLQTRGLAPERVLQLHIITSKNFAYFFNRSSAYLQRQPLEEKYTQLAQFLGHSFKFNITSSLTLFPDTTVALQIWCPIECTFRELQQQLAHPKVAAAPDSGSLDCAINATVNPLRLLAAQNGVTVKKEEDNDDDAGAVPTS
The experiment in a line: EMSA; 20-80 nM Cdc13, 30 nM DNA; EMSA: room temperature 5 min (30 C in Fig 5E), 30 nM DNA, 6% native gel, buffer not stated; DMS footprint: 50 mM cacodylate pH 7.0, 25 C 10 min, then 0.05% DMS. To be noted: protein: recombinant, tags: 6xHis. A general note: A gel shift assay detects complexes by their altered migration in electrophoresis.

For series [2], the target named is T2, Cdc13-BD (Saccharomyces cerevisiae, UniProt P32797 451-693).
T2 sequence: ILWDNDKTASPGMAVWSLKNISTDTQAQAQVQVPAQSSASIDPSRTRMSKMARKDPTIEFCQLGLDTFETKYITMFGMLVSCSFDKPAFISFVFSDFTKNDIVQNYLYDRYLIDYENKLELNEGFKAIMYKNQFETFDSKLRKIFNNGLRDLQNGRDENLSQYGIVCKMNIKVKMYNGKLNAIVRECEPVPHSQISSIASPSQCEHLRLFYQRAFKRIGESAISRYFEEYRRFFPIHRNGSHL
The experiment in a line: EMSA; 20-80 nM protein, 30 nM DNA; second BD molecule binds; EMSA: room temperature 5 min (30 C in Fig 5E), 30 nM DNA, 6% native gel, buffer not stated; DMS footprint: 50 mM cacodylate pH 7.0, 25 C 10 min, then 0.05% DMS. To be noted: protein: recombinant; tags: 6xHis; label: 5'-32P; single strand.

In series [3] the target is T3, Cdc13-2 (Saccharomyces cerevisiae, UniProt P32797 1-924, E252K).
T3 sequence: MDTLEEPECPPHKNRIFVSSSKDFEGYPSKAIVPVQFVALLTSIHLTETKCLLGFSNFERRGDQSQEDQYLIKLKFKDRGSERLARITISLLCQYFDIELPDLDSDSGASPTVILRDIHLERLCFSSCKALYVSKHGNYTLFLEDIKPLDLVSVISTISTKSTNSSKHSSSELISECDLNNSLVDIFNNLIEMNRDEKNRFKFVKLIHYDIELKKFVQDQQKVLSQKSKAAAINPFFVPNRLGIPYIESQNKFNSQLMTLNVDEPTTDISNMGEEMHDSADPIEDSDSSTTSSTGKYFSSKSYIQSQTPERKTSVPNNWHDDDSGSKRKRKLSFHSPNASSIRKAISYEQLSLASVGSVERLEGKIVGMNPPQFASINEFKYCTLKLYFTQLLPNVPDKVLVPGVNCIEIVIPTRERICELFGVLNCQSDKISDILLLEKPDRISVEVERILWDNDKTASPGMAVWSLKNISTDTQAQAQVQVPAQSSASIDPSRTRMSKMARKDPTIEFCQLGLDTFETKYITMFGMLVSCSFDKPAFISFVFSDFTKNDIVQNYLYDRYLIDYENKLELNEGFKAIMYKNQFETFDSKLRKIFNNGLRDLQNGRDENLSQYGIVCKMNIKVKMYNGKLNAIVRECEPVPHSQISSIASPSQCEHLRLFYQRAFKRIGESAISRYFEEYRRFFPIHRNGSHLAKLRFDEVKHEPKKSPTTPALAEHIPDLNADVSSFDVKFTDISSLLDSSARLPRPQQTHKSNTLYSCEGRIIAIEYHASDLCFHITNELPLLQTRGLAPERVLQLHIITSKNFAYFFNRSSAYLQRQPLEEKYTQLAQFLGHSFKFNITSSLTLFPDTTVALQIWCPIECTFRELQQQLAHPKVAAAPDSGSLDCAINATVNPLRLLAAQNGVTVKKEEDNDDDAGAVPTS
Description: EMSA; affinity similar to wild-type Cdc13; EMSA: room temperature 5 min (30 C in Fig 5E), 30 nM DNA, 6% native gel, buffer not stated; DMS footprint: 50 mM cacodylate pH 7.0, 25 C 10 min, then 0.05% DMS. To be noted: protein: recombinant; tags: 6xHis; chain copies: 2; label: 5'-32P on T21; 3' overhang 15 nt (T21 strand).

Series [4] concerns the target T4, Est1-TAP (Saccharomyces cerevisiae, UniProt P17214 1-699).
T4 sequence: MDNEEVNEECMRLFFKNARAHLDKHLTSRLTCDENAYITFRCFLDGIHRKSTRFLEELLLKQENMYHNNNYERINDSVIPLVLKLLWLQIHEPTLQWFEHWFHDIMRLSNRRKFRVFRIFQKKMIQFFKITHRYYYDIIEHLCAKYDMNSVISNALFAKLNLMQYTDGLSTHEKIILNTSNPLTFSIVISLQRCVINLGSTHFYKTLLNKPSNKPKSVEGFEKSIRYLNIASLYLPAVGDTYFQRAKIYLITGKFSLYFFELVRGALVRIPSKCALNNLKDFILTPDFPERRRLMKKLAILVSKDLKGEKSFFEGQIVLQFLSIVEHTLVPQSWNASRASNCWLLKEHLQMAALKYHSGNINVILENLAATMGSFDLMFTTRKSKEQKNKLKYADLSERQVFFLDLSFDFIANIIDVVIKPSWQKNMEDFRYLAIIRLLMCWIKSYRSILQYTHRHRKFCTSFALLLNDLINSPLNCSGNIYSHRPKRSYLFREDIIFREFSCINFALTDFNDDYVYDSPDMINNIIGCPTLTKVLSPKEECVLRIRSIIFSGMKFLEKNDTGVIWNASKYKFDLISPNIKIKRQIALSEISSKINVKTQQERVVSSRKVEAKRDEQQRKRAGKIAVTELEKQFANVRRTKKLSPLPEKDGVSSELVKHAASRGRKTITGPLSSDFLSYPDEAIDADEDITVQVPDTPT
The experiment in a line: EMSA; Est1-TAP alone; no stable complex; EMSA: room temperature 5 min (30 C in Fig 5E), 30 nM DNA, 6% native gel, buffer not stated; DMS footprint: 50 mM cacodylate pH 7.0, 25 C 10 min, then 0.05% DMS. To be noted: protein: recombinant; label: 5'-32P on T21; 3' overhang 15 nt (T21 strand).

As for ATGGCTAGGTAGCCGAATTGCGTAGGTGGGTGTGGTGTGTGTGGG (ssDNA) [T21], the binding result in series [1] (label: 5'-32P, single strand) is “binds”; in series [2] it was “binds”.

B1: T21/C20 tailed duplex (mixed)
DNA 1: ATGGCTAGGTAGCCGAATTGCGTAGGTGGGTGTGGTGTGTGTGGG
DNA 2: CCCACCTACGCAATTCGGCTACCTAGCCAT
modifications: 3'-NH2 on C20
As to B1, the binding result in series [3] is on record as “binds”; in series [1] (chain copies: 2, label: 5'-32P on T21, 3' overhang 15 nt (T21 strand)) it was “binds”; in series [4] it was “no binding”.
